# Experimental data as given in patent publication US20180236053A1 (CELLECTIS, published 2018).
# B1: 28F5-V2 CAR (other)
# chain: QIQLVQSGPELKKPGETVKISCKASGYTFTKYGMNWVKQTPGKGLKWMGWINTNSGEPTYAEEFKGRFAFSLETSASTAYLQINNLKNEDTATYFCARGAYYRYDGEVSYYAMDYWGQGTSVTVSSGGGGSGGGGSGGGGSQIILTQSPAIMSASLGERVTMTCTATSSLSSSYLHWYQQKPGSSPKLWIYSTSHLASGVPARFSGGGSGTSYSLTISSMEAEDAATYYCHQYHLSPYTFGGGTKLEIKTTTPAPRPPTPAPTIASQPLSLRPEACRPAAGGAVHTRGLDFACDIYIWAPLAGTCGVLLLSLVITLYCKRGRKKLLYIFKQPFMRPVQTTQEEDGCSCRFPEEEEGGCELRVKFSRSADAPAYQQGQNQLYNELNLGRREEYDVLDKRRGRDPEMGGKPRRKNPQEGLYNELQKDKMAEAYSEIGMKGERRRGKGHDGLYQGLSTATKDTYDALHMQALPPR
# notes: Chimeric antigen receptor on T cells; signal peptide left out here
# Key:
# [1] = biological target: T1, CD38-Fc protein (produced by LakePharma) (UniProt P28907 43-300, limits assumed); assay: flow cytometry, CD38 Fc staining of CD38/TRAC double KO T cells transduced with rLV (FIG. 27C)
# T1 construct: Staining reagent for CAR detection by flow cytometry; also called CD38-Fc fusion protein; not shown: Fc part
# Experimental: The parameters are the following: T cells were activated by using Dynabeads CD3-CD28, the culture were made by using medium Xvivo+5% human serum heat inactivated+IL-2 20 ng/ml, a double KO (DKO) CD38-TRAC was performed by using a ratio of 2 μg TALEN mRNA per million of cells (5 million cells/cuvette); the transduction was performed by using rLV from Vectalys(France) at a MOI of 5.
# The screening of the 4 CARs 25A10-v1, -v2, 28F5-v1 and -v2 after rLV transduction in DKO T cells has shown that all the CARs were expressed at the T cell surface with a high efficiency (>40%) and 3 of them above 80% (FIG. 27C). RQR8 expression was correlated with CAR expression (FIG. 27A). Most of the T cells were CD38 negative when T cells have been transduced by CD38 CARs (FIG. 27A). It is shown also that 60-85% of T cells endowed with the above 4 CARs were DKO TRAC/CD38 (FIG. 27B).
# [2] = biological target: CD38 antigen on the surface of cells (U266 CD38+, MOLP8, Daudi, T-ALL cell lines, activated T cells) (human, UniProt P28907 1-300); assay: cell-based or functional assay
# [3] = biological target: T1, CD38-Fc protein (produced by LakePharma); assay: flow cytometry, CD38-Fc fusion protein staining of purified CD38-deficient T cells transfected with CAR mRNA (FIG. 15)
# Experimental: T cells were purified from buffy coat samples and activated using anti-CD3/CD28 coated beads and IL-2. CD38-1 TALEN mRNA was transfected in T cells at day 4 after activation, 6 days later CD38 negative cells were purified by using magnetic separation (Miltenyi). The day after, CAR mRNAs were transfected. The CAR expression and degranulation capacity of CART cells were assessed 24 hours after the transfection. CAR expression and cytotoxic capacity of CART cells were assessed 48 hours after the transfection.
# All CARs were detected 24 h after transfection except the 25A10-V3 However, the latter expressed anti-CD38 CAR above the background. The 13F11-V2, 25A10-V1, 25A10-V2 and 28F5-V2 were highly expressed (more than 80%).
binder,measurement,setting,value
B1,% of T cells stained by CD38-Fc (CAR expression),[1],> 40%
same,ratio of degranulation against U266 CD38+ and U266 CD38-,[2],> 2 ratio
same,% of T cells stained by CD38-Fc (CAR expression),[3],> 80%
